According to publication PMC11407386, “Streptococcus suis 5’-nucleotidases contribute to adenosine-mediated immune evasion and virulence in a mouse model” (Virulence, 2024):

System: Nc1ncnc2c1ncn2[C@@H]1O[C@H](COP(=O)(O)O)[C@@H](O)[C@H]1O
Experiment: purified protein
Conditions: 50 mM Tris-HCl, 5 mM MnCl2, pH 7.5, 37°C, 0.05 µM enzyme

Row | Substance | Km (0-500 µM AMP) [µM] | Km (0-2000 µM AMP) [µM]
1 | SntA (Streptococcus suis BM407) | 13.67 | 
2 | SntC (Streptococcus suis BM407) | 83.7 | 
3 | SntD (Streptococcus suis BM407) |  | 412.1
